The target of data set [1] is T1, mAG1-Cyclin D1 (UniProt P24385 1-295).
T1 construct: whole, on cells; also called hmAG1-Cyclin D1
Put plainly: fluorescent foci in HEK293 cells expressing mAG1-Cyclin D1, p21-PB1 and CDK4-PB1.

Data set [2] deals with the molecule itself. Put plainly: fluorescent foci in HEK293 cells co-expressing PB1-mAG1-FKBP12, 500 nM rapamycin; homodimer formation of CD80. Here is the method:
(§1) (A) CD80-FRB and PB1-mAG1-FKBP12; and [0651] (B) CD2-FRB and PB1-mAG1-FKBP12.
(§2) Specifically, first, HEK293 cells were cultured in a culture solution (DMEM high glucose, 10% FBS, 1% penicillin-streptomycin). Then, on the day before the transfection, the cells were seeded onto an 8-well chamber, and cultured in 100 μL of the culture solution per well. Subsequently, a DNA solution prepared by mixing 200 ng of each of the plasmids was diluted with 10 μL of OptiMEM. Thereafter, 0.8 μL of Fugene HD was added thereto and then stirred. The resultant was further mixed with 90 μl of the culture solution. After that, the obtained mixture solution was added to the cultured cells and cultured for 20 hours.

Data set [3] deals with the molecule itself. Put plainly: fluorescent foci in HEK293 cells co-expressing PB1-mAG1-FKBP12, 500 nM rapamycin; negative control for homodimer formation. The procedure:
as §1, §2

Here are results for three molecules from patent US20170122932A1 (MEDICAL AND BIOLOGICAL LABORATORIES, published 2017).

T1 sequence (P24385 other isoform, or with tags, fused parts or gaps): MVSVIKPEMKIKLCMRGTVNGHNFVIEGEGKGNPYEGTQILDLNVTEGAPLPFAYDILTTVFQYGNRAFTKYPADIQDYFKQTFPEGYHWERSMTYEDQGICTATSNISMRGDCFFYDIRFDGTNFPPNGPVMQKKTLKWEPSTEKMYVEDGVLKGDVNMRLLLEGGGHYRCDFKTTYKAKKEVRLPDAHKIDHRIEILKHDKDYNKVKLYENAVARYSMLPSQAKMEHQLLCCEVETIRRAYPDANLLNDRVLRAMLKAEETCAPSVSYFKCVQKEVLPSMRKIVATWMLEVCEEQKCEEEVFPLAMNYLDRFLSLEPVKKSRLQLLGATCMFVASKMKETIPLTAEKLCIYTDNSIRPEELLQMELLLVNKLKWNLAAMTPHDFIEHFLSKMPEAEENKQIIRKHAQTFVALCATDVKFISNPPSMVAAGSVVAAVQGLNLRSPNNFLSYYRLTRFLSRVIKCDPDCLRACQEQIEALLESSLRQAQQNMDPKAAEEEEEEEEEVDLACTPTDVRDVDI

B1: CDK4-PB1 (other, not shown: small tags and cut ends)
chain: ATSRYEPVAEIGVGAYGTVYKARDPHSGHFVALKSVRVPNGGGGGGGLPISTVREVALLRRLEAFEHPNVVRLMDVCATSRTDREIKVTLVFEHVDQDLRTYLDKAPPPGLPAETIKDLMRQFLRGLDFLHANCIVHRDLKPENILVTSGGTVKLADFGLARIYSYQMALTPVVVTLWYRAPEVLLQSTYATPVDMWSVGCIFAEMFRRKPLFCGNSEADQLGKIFDLIGLPPEDDWPRDVSLPRGAFPPRGPRPVQSVVPEMEESGAQLLLEMLTFNPHKRISAFRALQHSYLHKDEGNPEMASLTVKAYLLGKEDAAREIRRFSFCCSPEPEAEAEAAAGPGPCERLLSRVAALFPALRPGGFQAHYRDEDGDLVAFSSDEELTMAMSYVKDDIFRIYIKEK
notes: whole, on cells
For the molecule B1, the binding result in data set [1] is recorded as “binds”.

B2: CD80-FRB (other, not shown: small tags and cut ends)
chain: VIHVTKEVKEVATLSCGHNVSVEELAQTRIYWQKEKKMVLTMMSGDMNIWPEYKNRTIFDITNNLSIVILALRPSDEGTYECVVLKYEKDAFKREHLAEVTLSVKADFPTPSISDFEIPTSNIRRIICSTSGGFPEPHLSWLENGEELNAINTTVSQDPETELYAVSSKLDFNMTTNHSFMCLIKYGHLRVNQTFNWNTTKQEHFPDNLLPSWAITLISVNGIFVICCLTYCFAPRCRERRRNERLRRESVRPVEMWHEGLEEASRLYFGERNVKGMFEVLEPLHAMMERGPQTLKETSFNQAYGRDLMEAQEWCRKYMKSGNVKDLTQAWDLYYHVFRRISKQ
notes: whole, on cells; In the assay it was joined by rapamycin to PB1-mAG1-FKBP12
Regarding B2, in data set [2], the binding result was “binds”.

B3: CD2-FRB (other, not shown: small tags and cut ends)
chain: KEITNALETWGALGQDINLDIPSFQMSDDIDDIKWEKTSDKKKIAQFRKEKETFKEKDTYKLFKNGTLKIKHLKTDDQDIYKVSIYDTKGKNVLEKIFDLKIQERVSKPKISWTCINTTLTCEVMNGTDPELNLYQDGKHLKLSQRVITHKWTTSLSAKFKCTAGNKVSKESSVEPVSCPEKGLDIYLIIGICGGGSLLMVFVALLVFYITKRKKQRSRRNDEELETRAHRVATEERGRKPHQIPASTPQNPATSQHPPPPPGHRSQAPSHRPPPPGHRVQHQPQKRPPAPSGTQVHQQKGPPLPRPRVQPKPPHGAAENSLSPSSNEMWHEGLEEASRLYFGERNVKGMFEVLEPLHAMMERGPQTLKETSFNQAYGRDLMEAQEWCRKYMKSGNVKDLTQAWDLYYHVFRRISKQ
notes: whole, on cells
For B3, in data set [3], the binding result was “no binding”.
